Experimental data from patent US20130323252A1 (Novartis, published 2013).
Positions of bridges follow the written chain, without caps; N, C: chain ends. No end group written: not given here.

Tests used:
[1] = target: TMEM16A-GFP fusion protein on HEK293 stable cells (UniProt Q5XXA6); experiment: flow cytometry on HEK293-TMEM16A cells
[2] = target: SP31 (ab64085) Abcam rabbit monoclonal antibody against human TMEM16A; experiment: peptide pre-incubation of the antibody, western blot of TMEM16A
[3] = target: T1, linear peptide 45_ECD1-3 (human); experiment: peptide microarray, linear peptide, Cy5 anti-rat IgG detection
T1 peptide: SRYKDYREPPWSENK
Method: (§1) Both set of peptides were printed on microarray slides in triplicate, incubated with the antibody of interest (12E11) and control antibodies. One is an incubation with an unrelated antibody from the same isotype (rat control IgG2b), the second using only the secondary antibody (anti-rat IgG (H+L) (JIR, 212-175-082) (Label Cy5)) to assess unspecific binding due to the detection antibody. The experiments are performed essentially as described in Maksimov P, et al. 2012, PLoS One 7:e34212. doi:10.1371/journal.pone. 0034212.
(§2) The determination of peptide-antibody binding was performed by RepliTope-analysis where the peptide microarray (triplicate) was incubated with the primary antibody followed by a fluorescently labelled secondary antibody directed against the Fc-part of the primary one. All steps were performed on a TECAN microarray processing station enabling highly reliable and reproducible washing and incubation steps. After performing the incubation steps and subsequent to the final washing steps (to remove the unbound secondary antibodies) the microarrays were dried using a nitrogen stream and scanned in a high resolution microarray scanning system with appropriate wavelength settings. Control incubations were performed with an unrelated antibody having the same isotype to exclude false positive signals.
(§3) The resulting images were analyzed and quantified using spot-recognition software GenePix (Molecular Devices). For each spot, the mean signal intensity was extracted (between 0 and 65535 arbitrary units). For further data evaluation, the MMC2 values were determined. The MMC2 equals the mean value of all three instances on the microarray. Except the coefficient of variation (CV)—standard-deviation divided by the mean value—is larger 0.5, in this case the mean of the two closest values (MC2) is assigned to MMC2.

[4] = target: T2, linear peptide 44_ECD1-3 (human); experiment: as above
T2 peptide: VQISRYKDYREPPWS
Method: as §1, §2, §3

[5] = target: T3, linear peptide 46_ECD1-3 (human); experiment: as above
T3 peptide: KDYREPPWSENKYDI
Method: as §1, §2, §3

[6] = target: T4, cyclic peptide 46_ECD1-3 cys (human, disulfide 1-17 (inferred)); experiment: peptide microarray, cyclic peptide, Cy5 anti-rat IgG detection
T4 construct: Same 15-mer as linear peptide 46, flanked by cysteines; also called peptide 46 (cyclic)
T4 peptide: CKDYREPPWSENKYDIC
Method: as §1, §2, §3

[7] = target: T5, cyclic peptide 45_ECD1-3 cys (human, disulfide 1-17 (inferred)); experiment: as above
T5 construct: Same 15-mer as linear peptide 45, flanked by cysteines; also called Peptide 45 (cyclic)
T5 peptide: CSRYKDYREPPWSENKC
Method: as §1, §2, §3

[8] = target: T6, cyclic peptide 44_ECD1-3 cys (human, disulfide 1-17 (inferred)); experiment: as above
T6 construct: Same 15-mer as linear peptide 44, flanked by cysteines; also called Peptide 44 (cyclic)
T6 peptide: CVQISRYKDYREPPWSC
Method: as §1, §2, §3

TMEM16A-GFP fusion protein on HEK293 stable cells, sequence (Q5XXA6 whole entry, the tested form may be a part): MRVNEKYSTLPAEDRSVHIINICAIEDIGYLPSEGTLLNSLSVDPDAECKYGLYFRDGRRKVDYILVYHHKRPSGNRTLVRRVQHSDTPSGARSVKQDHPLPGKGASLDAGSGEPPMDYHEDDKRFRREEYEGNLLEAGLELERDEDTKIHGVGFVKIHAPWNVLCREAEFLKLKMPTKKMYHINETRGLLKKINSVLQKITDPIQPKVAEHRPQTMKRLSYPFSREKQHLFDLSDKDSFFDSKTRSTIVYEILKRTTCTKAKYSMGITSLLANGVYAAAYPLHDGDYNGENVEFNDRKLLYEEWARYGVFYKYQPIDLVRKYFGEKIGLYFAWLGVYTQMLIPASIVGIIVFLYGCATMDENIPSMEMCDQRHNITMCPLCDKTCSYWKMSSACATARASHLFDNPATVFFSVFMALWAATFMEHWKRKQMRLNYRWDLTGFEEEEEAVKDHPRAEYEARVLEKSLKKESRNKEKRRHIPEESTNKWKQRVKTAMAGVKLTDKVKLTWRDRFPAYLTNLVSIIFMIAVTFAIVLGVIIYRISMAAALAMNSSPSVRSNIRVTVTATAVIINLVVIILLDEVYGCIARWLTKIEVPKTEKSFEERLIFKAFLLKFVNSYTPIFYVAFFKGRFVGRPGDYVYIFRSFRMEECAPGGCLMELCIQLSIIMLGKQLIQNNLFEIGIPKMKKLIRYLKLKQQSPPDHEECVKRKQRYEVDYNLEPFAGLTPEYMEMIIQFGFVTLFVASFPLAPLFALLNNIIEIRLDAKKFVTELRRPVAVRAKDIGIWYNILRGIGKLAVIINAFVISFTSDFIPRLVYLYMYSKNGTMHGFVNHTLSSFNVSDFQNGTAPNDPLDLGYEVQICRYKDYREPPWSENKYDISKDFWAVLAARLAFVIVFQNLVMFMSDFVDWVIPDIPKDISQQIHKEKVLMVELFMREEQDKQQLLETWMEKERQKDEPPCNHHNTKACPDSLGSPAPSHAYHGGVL

Molecule: isotype control antibody (control for 12E11 in flow cytometry)
- median fluorescence intensity [1]: 93

B1: blocking Peptide #2 (peptide)
peptide: DHEECVKRKQRYEVDYNLE
- peptide concentration that effectively blocked [2]: 0.01 µg/mL

B2: 12E11 TMEM16A antibody (antibody, V domains shown)
VH: QVQLKESGPGLVQPSQTLTLTCTVSGFSLSNYDMHWVRQSPGKGLDWMGVIWGNGKTQYNSGLTSRLSISRDTSKSQVFLKMNSLQTEDTAIYFCTRSGYYYDGSYYSLFDYWGQGVMVTVSS
VL: DVVLTQTPPTLSATIGQSVSISCRSSQSLLHSNGNTYLNWLLQRPGQPPQLLIYLVSRLESGVPNRFSGSGSGTDFTLKISGVEAEDLGVYYCVQSTHAPAFGGGTKLELK
notes: Rat hybridoma monoclonal made by genetic immunization; The same-isotype control was rat IgG2b, which implies a rat IgG2b constant region
- Signal intensity after subtraction of control signal (AU) [3]: 27300 AU
- Signal intensity after subtraction of control signal (AU) [4]: 36800 AU
- Signal intensity after subtraction of control signal (AU) [5]: 15100 AU
- Signal intensity after subtraction of control signal (AU) [6]: 24800 AU
- Signal intensity after subtraction of control signal (AU) [7]: 56600 AU
- Signal intensity after subtraction of control signal (AU) [8]: 55900 AU
